Measurements: patent US20260226191A1 (SHANDONG SIMCERE BIOPHARMACEUTICAL, published 2026)

T1: Cyno MUC17 ECD3577-mFc (mFc-tagged cynomolgus monkey MUC17 protein extracellular region fusion protein) (cynomolgus monkey)
T1 construct: also called monkey MUC17-mFc protein; Monkey MUC17-ECD3577-mFc protein
T1 chain: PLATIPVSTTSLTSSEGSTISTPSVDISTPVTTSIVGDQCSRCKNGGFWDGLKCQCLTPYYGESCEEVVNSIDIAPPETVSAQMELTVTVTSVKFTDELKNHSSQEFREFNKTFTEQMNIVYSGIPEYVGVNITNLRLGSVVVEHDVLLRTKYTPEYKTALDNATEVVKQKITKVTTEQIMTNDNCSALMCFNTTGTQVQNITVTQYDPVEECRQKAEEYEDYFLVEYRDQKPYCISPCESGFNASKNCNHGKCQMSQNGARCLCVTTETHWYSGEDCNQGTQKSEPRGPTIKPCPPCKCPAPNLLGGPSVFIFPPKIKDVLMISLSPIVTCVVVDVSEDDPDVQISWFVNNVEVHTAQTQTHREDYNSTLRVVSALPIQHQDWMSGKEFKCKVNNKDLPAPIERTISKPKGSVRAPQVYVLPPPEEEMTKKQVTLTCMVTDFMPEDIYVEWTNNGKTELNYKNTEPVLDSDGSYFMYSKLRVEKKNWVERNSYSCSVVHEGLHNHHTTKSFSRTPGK

B1: Bis 57 (bispecific antibody, human IgG1, kappa)
heavy: EVQLVESGGGVVQPGRSLRLSCAASGFTFTDYYMSWVRQAPGKGLEWVAMSRNKAKGHTIEYSSSVKGRFTISRDNSKNTLYLQMNSLRAEDTAVYYCARDTYESYDGYFDVWGQGTTVTVSSASTKGPSVFPLAPSSKSTSGGTAALGCLVKDYFPEPVTVSWNSGALTSGVHTFPAVLQSSGLYSLSSVVTVPSSSLGTQTYICNVNHKPSNTKVDKKVEPKSCDKTHTCPPCPAPEAAGAPSVFLFPPKPKDTLMISRTPEVTCVVVDVSHEDPEVKFNWYVDGVEVHNAKTKPREEQYNSTYRVVSVLTVLHQDWLNGKEYKCKVSNKALPAPIEKTISKAKGQPREPQVYTLPPSREEMTKNQVSLWCLVKGFYPSDIAVEWESNGQPENNYKTTPPVLDSDGSFFLYSKLTVDKSRWQQGNVFSCSVMHEALHNHYTQKSLSLSPG
light: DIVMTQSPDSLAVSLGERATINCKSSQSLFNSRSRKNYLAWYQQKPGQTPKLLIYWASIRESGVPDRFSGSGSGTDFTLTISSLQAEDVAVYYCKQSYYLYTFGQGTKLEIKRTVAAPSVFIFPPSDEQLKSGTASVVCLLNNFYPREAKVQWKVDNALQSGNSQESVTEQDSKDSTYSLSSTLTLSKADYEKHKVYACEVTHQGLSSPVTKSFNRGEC
chain: EVQLVESGGGLVQPGRSLRLSCAASGDITRRCMGWFRQAPGKEREGVAGISEDGITIYADSVKGRFTISKDNAKNSLYLQMNSLRAEDTALYSCAASILNRVGCRQLSYEYIYRGQGTMVTVSSGGGDKTHTCPPCPAPEAAGAPSVFLFPPKPKDTLMISRTPEVTCVVVDVSHEDPEVKFNWYVDGVEVHNAKTKPREEQYNSTYRVVSVLTVLHQDWLNGKEYKCKVSNKALPAPIEKTISKAKGQPREPQVYTLPPSREEMTKNQVSLSCAVKGFYPSDIAVEWESNGQPENNYKTTPPVLDSDGSFFLVSKLTVDKSRWQQGNVFSCSVMHEALHNHYTQKSLSLSPG
notes: Three-chain asymmetric MUC17xCD3 bispecific
B2: Bis 59 (bispecific antibody, human IgG1, kappa)
heavy: B1 heavy
light: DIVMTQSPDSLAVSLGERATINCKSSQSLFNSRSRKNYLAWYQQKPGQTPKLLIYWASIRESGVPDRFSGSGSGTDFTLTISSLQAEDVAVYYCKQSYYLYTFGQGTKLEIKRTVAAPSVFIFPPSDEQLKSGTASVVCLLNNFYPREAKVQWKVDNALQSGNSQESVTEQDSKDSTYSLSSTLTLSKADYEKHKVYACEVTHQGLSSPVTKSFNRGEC
chain: EVQLVESGGGVVQPGGSLRLSCAASGDTFSRGSWGWFRQAPGKEREAVALISSDGWTFYADSVKGRFTISQDNSKNTLYLQMNSLRAEDTAVYYCAASVLVLRTLNPKAWHHWGQGTMVTVSSGGGDKTHTCPPCPAPEAAGAPSVFLFPPKPKDTLMISRTPEVTCVVVDVSHEDPEVKFNWYVDGVEVHNAKTKPREEQYNSTYRVVSVLTVLHQDWLNGKEYKCKVSNKALPAPIEKTISKAKGQPREPQVYTLPPSREEMTKNQVSLSCAVKGFYPSDIAVEWESNGQPENNYKTTPPVLDSDGSFFLVSKLTVDKSRWQQGNVFSCSVMHEALHNHYTQKSLSLSPG
notes: as for B1
B3: Bis 92 (bispecific antibody, human IgG1, kappa)
heavy: B1 heavy
light: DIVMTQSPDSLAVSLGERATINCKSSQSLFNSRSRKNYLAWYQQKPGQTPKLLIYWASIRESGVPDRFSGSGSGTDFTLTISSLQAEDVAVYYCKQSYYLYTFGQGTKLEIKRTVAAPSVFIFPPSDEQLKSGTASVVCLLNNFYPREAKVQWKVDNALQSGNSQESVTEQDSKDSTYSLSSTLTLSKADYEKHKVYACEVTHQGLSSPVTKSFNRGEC
chain: EVQLVESGGGVVQPGGSLRLSCAASGYTSNRYSMAWFRQAPGKEREVVAFIWTDGGRTYYADSVKGRFTISRDNSKNTLYLQMNSLRAEDTAVYYCAASSLLLQTINPRAWPYWGQGTMVTVSSGGGDKTHTCPPCPAPEAAGAPSVFLFPPKPKDTLMISRTPEVTCVVVDVSHEDPEVKFNWYVDGVEVHNAKTKPREEQYNSTYRVVSVLTVLHQDWLNGKEYKCKVSNKALPAPIEKTISKAKGQPREPQVYTLPPSREEMTKNQVSLSCAVKGFYPSDIAVEWESNGQPENNYKTTPPVLDSDGSFFLVSKLTVDKSRWQQGNVFSCSVMHEALHNHYTQKSLSLSPG
notes: as for B1
B4: Bis 58 (bispecific antibody, human IgG1, kappa)
heavy: B1 heavy
light: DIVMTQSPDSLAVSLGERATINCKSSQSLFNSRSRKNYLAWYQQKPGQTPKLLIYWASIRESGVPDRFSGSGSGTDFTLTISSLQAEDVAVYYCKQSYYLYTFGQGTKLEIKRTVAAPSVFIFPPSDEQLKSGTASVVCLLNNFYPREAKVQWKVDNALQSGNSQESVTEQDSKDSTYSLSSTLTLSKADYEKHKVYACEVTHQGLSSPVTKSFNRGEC
chain: EVQLVESGGGLVQPGGSLRLSCAASGFPSSRGTMAWFRQAPGKEREGVAFINSDGRTSYAESVKGRFTISRDNAKNSLYLQMNSLRAEDTAVYYCAASLLYLMTVNAAAYPYWGQGTMVTVSSGGGDKTHTCPPCPAPEAAGAPSVFLFPPKPKDTLMISRTPEVTCVVVDVSHEDPEVKFNWYVDGVEVHNAKTKPREEQYNSTYRVVSVLTVLHQDWLNGKEYKCKVSNKALPAPIEKTISKAKGQPREPQVYTLPPSREEMTKNQVSLSCAVKGFYPSDIAVEWESNGQPENNYKTTPPVLDSDGSFFLVSKLTVDKSRWQQGNVFSCSVMHEALHNHYTQKSLSLSPG
notes: as for B1
B5: antiFITCx CD3 negative control (bispecific antibody, human IgG1, kappa)
heavy: B1 heavy
light: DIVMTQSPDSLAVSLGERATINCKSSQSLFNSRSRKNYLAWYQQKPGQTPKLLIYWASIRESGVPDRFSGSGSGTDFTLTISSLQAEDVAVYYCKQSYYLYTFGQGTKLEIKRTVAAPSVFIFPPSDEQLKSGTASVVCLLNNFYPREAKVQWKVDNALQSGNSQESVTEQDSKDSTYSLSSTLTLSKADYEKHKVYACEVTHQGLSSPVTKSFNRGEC
chain: EVKLDETGGGLVQPGRPMKLSCVASGFTFSDYWMNWVRQSPEKGLEWVAQIRNKPYNYETYYSDSVKGRFTISRDDSKSSVYLQMNNLRVEDMGIYYCTGSYYGMDYWGQGTSVTVSSGGGGSGGGGSGGGGSDVVMTQTPLSLPVSLGDQASISCRSSQSLVHSNGNTYLRWYLQKPGQSPKVLIYKVSNRFSGVPDRFSGSGSGTDFTLKISRVEAEDLGVYFCSQSTHVPWTFGGGTKLEIKGGGDKTHTCPPCPAPEAAGAPSVFLFPPKPKDTLMISRTPEVTCVVVDVSHEDPEVKFNWYVDGVEVHNAKTKPREEQYNSTYRVVSVLTVLHQDWLNGKEYKCKVSNKALPAPIEKTISKAKGQPREPQVYTLPPSREEMTKNQVSLSCAVKGFYPSDIAVEWESNGQPENNYKTTPPVLDSDGSFFLVSKLTVDKSRWQQGNVFSCSVMHEALHNHYTQKSLSLSPG
notes: Negative control with the same anti-CD3 arm and an anti-FITC scFv in place of the MUC17 VHH

Legend:
[1] = molecular target: T2, human MUC17 on endogenous tumor cells (NUGC4, SNU16, ASPC1) (human); assay: cell-based or functional assay
[2] = molecular target: T3, human MUC17 fragment on FlpinCHO-huMUC17-D1 cells (human); assay: FACS on FlpinCHO-huMUC17-D1 cells, MFI
T3 construct: On cells; also called cells overexpressing human MUC17

[3] = molecular target: T4, monkey MUC17 on FlpinCHO-cynoMUC17-D1 cells (monkey); assay: FACS on FlpinCHO-cynoMUC17-D1 cells, MFI
T4 construct: On cells; also called recombinant cells overexpressing monkey MUC17

[4] = molecular target: T5, Human CD3e-His protein (Sino Biological, CAT #10977-H08H) (human, UniProt P07766 23-126); assay: ELISA, human CD3e-His coated on the plate, OD450
T5 construct: Bought reagent; also called human CD3e protein

[5] = molecular target: T6, Human MUC17 ECD4131-his (His-tagged human MUC17 protein extracellular region fusion protein) (human, UniProt Q685J3 4131-4393); assay: ELISA, human MUC17-his coated on the plate, OD450
T6 construct: also called human MUC17-his protein; Human MUC17-ECD(4131-4393)-His protein

[6] = molecular target: T2, human MUC17 on endogenous tumor cells …; assay: FACS on NUGC4 cells (endogenous human MUC17), MFI
[7] = molecular target: T2, human MUC17 on endogenous tumor cells …; assay: FACS on SNU16 cells (endogenous human MUC17), MFI
[8] = molecular target: T2, human MUC17 on endogenous tumor cells …; assay: FACS on AspC-1 cells (endogenous human MUC17), MFI
[9] = molecular target: T1, Cyno MUC17 ECD3577-mFc (mFc-tagged …); assay: ELISA, cynomolgus MUC17-mFc coated on the plate, OD450
[10] = molecular target: T6, Human MUC17 ECD4131-his (His-tagged …); assay: SPR (Biacore 8K), antibody captured on Protein A, antigen injected, 25 C, 1:1 model
[11] = molecular target: T1, Cyno MUC17 ECD3577-mFc (mFc-tagged …); assay: as above
[12] = molecular target: T7, human cell surface CD3 (Jurkat cells, human PBMCs) (human, UniProt P07766 23-207); assay: FACS on naive human PBMCs (CD3), MFI
T7 construct: whole, on cells; CD3 is a multi-chain complex on the cell
T7 sequence (P07766 23-207): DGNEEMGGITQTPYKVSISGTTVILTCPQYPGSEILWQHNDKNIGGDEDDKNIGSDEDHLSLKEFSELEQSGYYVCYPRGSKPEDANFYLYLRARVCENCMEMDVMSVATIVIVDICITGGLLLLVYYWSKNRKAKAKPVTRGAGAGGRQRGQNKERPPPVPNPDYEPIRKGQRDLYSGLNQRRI

T5 sequence (P07766 23-126 limits assumed): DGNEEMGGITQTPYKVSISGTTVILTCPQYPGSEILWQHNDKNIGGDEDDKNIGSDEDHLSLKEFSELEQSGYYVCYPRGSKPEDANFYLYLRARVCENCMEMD

| Binder | PBMC-mediated in vitro tumor cell killing EC50, ASPC-1 [1] | PBMC-mediated in vitro tumor cell killing EC50, NUGC4 [1] | PBMC-mediated in vitro tumor cell killing EC50, SNU16 [1] | EC50 (read off the curve) [2] | EC50 (read off the curve) [3] | binding result [4] | EC50 (read off the curve) [5] | EC50 (read off the curve) [6] | EC50 (read off the curve) [7] | EC50 (read off the curve) [8] | EC50 (read off the curve) [9] | Kd [10] | koff [10] | kon [10] | Kd [11] | koff [11] | kon [11] | EC50 (read off the curve) [12] | binding result [5] |
| --- | --- | --- | --- | --- | --- | --- | --- | --- | --- | --- | --- | --- | --- | --- | --- | --- | --- | --- | --- |
| B1 | 0.011 nM | 0.024 nM | 0.017 nM | ~2 nM | ~8 nM | binds | ~0.05 nM | ~1 nM | ~0.3 nM | ~0.3 nM | ~0.04 nM | 0.289 nM | 4.86e-05 s⁻¹ | 168000 M⁻¹ s⁻¹ | 4.71 nM | 0.00016 s⁻¹ | 33900 M⁻¹ s⁻¹ |  |  |
| B2 | 0.0073 nM | 0.0166 nM | 0.0126 nM | ~1 nM |  | binds | ~0.05 nM | ~0.6 nM | ~0.2 nM | ~0.2 nM | ~0.2 nM | 0.219 nM | 9.74e-05 s⁻¹ | 445000 M⁻¹ s⁻¹ | 25.6 nM | 0.000866 s⁻¹ | 33900 M⁻¹ s⁻¹ |  |  |
| B3 | 0.00739 nM | 0.00779 nM |  | ~1 nM | ~20 nM | binds | ~0.05 nM | ~0.2 nM | ~0.08 nM | ~0.08 nM | ~0.09 nM | 0.136 nM | 7.81e-05 s⁻¹ | 572000 M⁻¹ s⁻¹ | 13.4 nM | 0.000511 s⁻¹ | 38100 M⁻¹ s⁻¹ |  |  |
| B4 | 0.0194 nM | 0.0271 nM |  | ~1 nM | ~8 nM |  | ~0.05 nM | ~0.5 nM | ~0.2 nM | ~0.2 nM | ~0.07 nM | 0.378 nM | 0.000138 s⁻¹ | 364000 M⁻¹ s⁻¹ | 7.11 nM | 0.00031 s⁻¹ | 43600 M⁻¹ s⁻¹ | ~50 nM |  |
| B5 |  |  |  |  |  | binds |  |  |  |  |  |  |  |  |  |  |  |  | no binding |
